We go through 5 compounds from patent publication US20030092632A1, “Sulfated CCR5 peptides for HIV-1 infection” (priority 2001, published 2003).

In one assay the test system is CCR5+ cells. The settings on record: pre-treatment of target cells; Farzan et al. 1999; cited from earlier work.
Assay [1] addresses envelope glycoproteins from HIV-1 strain JR-FL on NLluc+env- pseudotyped particles (HIV-1 JR-FL). As to the kind of experiment: cell-based or functional assay.
Another assay addresses CCR5. As to the kind of experiment: flow cytometry on L1.2-CCR5+ cells, no peptide (defined as 100%), PE-streptavidin. (In general: In flow cytometry, cells or beads pass a laser one at a time.)
The test system of another assay is HIV-1. Conditions: by associating with CD4 or gp120; literature; cited from earlier work.

Take `[Na+].[O-][Cl+2]([O-])[O-]` [sodium chlorate]: in the assay with CCR5+ cells, the “Binding of a gp120/CD4 complex to CCR5+ cells” value is “decreased”.

CCR5 Nt peptide S-3/10/14 had an inhibition of viral entry, luciferase-based single round of entry assay, HeLa-CD4+CCR5+ and U87MG-CD4+CCR5+ cells, peptide 100 µM in assay [1] of 50%.

As to CCR5 Nt peptide S-10/14, the inhibition of viral entry, luciferase-based single round of entry assay, HeLa-CD4+CCR5+ and U87MG-CD4+CCR5+ cells, peptide 100 µM in assay [1] worked out at 50%.

“biotinylated gp120JR-FL/CD4-IgG2 complex” showed a m.f.i. in the assay with CCR5 of 40 m.f.i.

Turning to dextran sulfate, the “Inhibition of HIV-1 entry” value with HIV-1 is “can inhibit HIV-1 entry”.
